{"source": "patent US20170008971A1", "key": {"[1]": {"molecular_target": "human epidermal growth factor receptor 2 (HER2) on cells (human) (UniProt P04626)", "experiment": "competitive Scatchard analysis, 125I-trastuzumab Fab tracer on SKBR-3 cells"}, "[2]": {"molecular_target": "CD3 on Jurkat cells (human) (UniProt P07766)", "experiment": "binding to Jurkat cells (data not shown; Scatchard assay presumed)"}}}
{"substance": "HER2 T cell dependent bispecific antibody (HER2-TDB), huIgG1, knob arm humanized anti-HER2 4D5 (trastuzumab), hole arm humanized anti-CD3 UCHT1.v9", "values": [{"measurement": "Kd", "setting": "[1]", "result": 5.4, "unit": "nM"}, {"measurement": "Kd", "setting": "[2]", "result": 4.7, "unit": "nM"}]}
